Values quoted from earlier work in patent publication US20230398266A1, “THERAPEUTIC AGENT FOR USE IN LOCAL TREATMENT OF INFLAMMATION ASSOCIATED WITH ATHEROSCLEROSIS AND/OR A THROMBOTIC STATE” (priority 2020, published 2023).

Experiments:
[1] = test system: patients with COVID-19; conditions: for side effects related to systemic administration: patients with COVID-19; for results in patients with COVID-19: systemic administration, preliminary studies
[2] = test system: patients with previous myocardial infarction and elevated inflammatory indices; conditions: systemic administration; compared to placebo

Substance | side effects related to systemic administration [1] | results in patients with COVID-19 [1] | incidence of cardiovascular events (death from heart disease, myocardial infarction, cerebral stroke) [2] | incidence of serious side effects such as fatal sepsis and thrombocythemia [2]
anakinra | severe side effects | encouraging results | – | –
canakinumab | – | – | lower incidence of cardiovascular events compared to placebo | higher incidence of serious side effects
tocilizumab | severe side effects | encouraging results | – | –
